The chains are these.
B1: MiD51^133-463, wild type (protein of the dimerization assays) (domain or fragment, human, UniProt Q9NQG6-1 133-463, looked up)
chain: MSLQEKLLTYYRNRAAIPAGEQARAKQAAVDICAELRSFLRAKLPDMPLRDMYLSGSLYDDLQVVTADHIQLIVPLVLEQNLWSCIPGEDTIMNVPGFFLVRRENPEYFPRGSSYWDRCVVGGYLSPKTVADTFEKVVAGSINWPAIGSLLDYVIRPAPPPEALTLEVQYERDKHLFIDFLPSVTLGDTVLVAKPHRLAQYDNLWRLSLRPAETARLRALDQADSGCRSLCLKILKAICKSTPALGHLTASQLTNVILHLAQEEADWSPDMLADRFLQALRGLISYLEAGVLPSALNPKVNLFAELTPEEIDELGYTLYCSLSEPEVLLQT
notes: the His tag is called N-terminal in the methods and C-terminal in the results; source: E. coli BL21 (DE3), purified
B2: MiD51^133-463 C165S (domain or fragment, human, UniProt Q9NQG6-1 133-463, looked up)
chain: B1 chain with C33S
notes: source: E. coli BL21 (DE3), purified
B3: MiD51^133-463 nucleotide binding site mutant (NBM, H201D/R342E/K368E) (domain or fragment, human, UniProt Q9NQG6-1 133-463, looked up)
chain: B1 chain with H69D, R210E, K236E
notes: as for B2
B4: MiD51^133-463 supposed dimer surface mutant (SDM, R169A/R182A/D183A/Q212A/N213A) (domain or fragment, human, UniProt Q9NQG6-1 133-463, looked up)
chain: B1 chain with R37A, R50A, D51A, Q80A, N81A
notes: as for B2
B5: Drp1 (dynamin-related protein Drp1), wild type (natural protein, UniProt O00429-4 1-699, looked up)
chain: MEALIPVINKLQDVFNTVGADIIQLPQIVVVGTQSSGKSSVLESLVGRDLLPRGTGIVTRRPLILQLVHVSQEDKRKTTGEENGVEAEEWGKFLHTKNKLYTDFDEIRQEIENETERISGNNKGVSPEPIHLKIFSPNVVNLTLVDLPGMTKVPVGDQPKDIELQIRELILRFISNPNSIILAVTAANTDMATSEALKISREVDPDGRRTLAVITKLDLMDAGTDAMDVLMGRVIPVKLGIIGVVNRSQLDINNKKSVTDSIRDEYAFLQKKYPSLANRNGTKYLARTLNRLLMHHIRDCLPELKTRINVLAAQYQSLLNSYGEPVDDKSATLLQLITKFATEYCNTIEGTAKYIETSELCGGARICYIFHETFGRTLESVDPLGGLNTIDILTAIRNATGPRPALFVPEVSFELLVKRQIKRLEEPSLRCVELVHEEMQRIIQHCSNYSTQELLRFPKLHDAIVEVVTCLLRKRLPVTNEMVHNLVAIELAYINTKHPDFADACGLMNNNIEEQRRNRLARELPSAVSRDKVASGGGGVGDGVQEPTTGNWRGMLKTSKAEELLAEEKSKPIPIMPASPQKGHAVNLLDVPVPVARKLSAREQRDCEVIERLIKSYFLIVRKNIQDSVPKAVMHFLVNHVKDTLQSELVGQLYKSSLLDDLLTESEDMAQRRKEAADMLKALQGASQIIAEIRETHLW
notes: Drp1, GenBank NM_005690; also called wild-type Drp1; source: E. coli Rosseta (DE3), purified (Ni-NTA, anion exchange, size-exclusion chromatography)
B6: Drp1 S600D (natural protein, UniProt O00429-4 1-699, looked up)
chain: B5 chain with S600D
notes: Drp1, GenBank NM_005690; S600 is S637 in Drp1 isoform 1 (printed); also called phosphorylation site mutant (related to S637 in Drp1 isoform 1); source: E. coli Rosseta (DE3), purified (Ni-NTA, anion exchange, size-exclusion chromatography)
B7: Drp1 K38A (natural protein, UniProt O00429-4 1-699, looked up)
chain: B5 chain with K38A
notes: Drp1, GenBank NM_005690; also called K38A mutant of Drp1; dominant-negative GTPase mutation K38A; source: E. coli Rosseta (DE3), purified (Ni-NTA, anion exchange, size-exclusion chromatography)
B8: GST-MiD51^133-463, wild type (domain or fragment, human, UniProt Q9NQG6-1 133-463, looked up)
chain: B1 chain
notes: also called cytosolic domain of MiD51; source: E. coli BL21 (DE3), purified (Glutathione Sepharose, eluted with reduced glutathione)
B9: Drp1 S579D (natural protein, UniProt O00429-4 1-699, looked up)
chain: B5 chain with S579D
notes: Drp1, GenBank NM_005690; S579 is S616 in Drp1 isoform 1 (printed); also called phosphorylation site mutant (related to S616 in Drp1 isoform 1); source: E. coli Rosseta (DE3), purified (Ni-NTA, anion exchange, size-exclusion chromatography)

Data set [1] concerns the molecule itself. Kind of data set: non-reducing SDS-PAGE; purified MiD51^133-463 in the air; time course, dimer quantified every twenty-four hours; wild type and mutants compared.
Data set [2] deals with the molecule itself. The data set can be described thus: SEC; Superdex 200 PC 3.2/20; purified Drp1 and Drp1 mutants.
Another data set has as its target T1, Drp1 A395D (UniProt O00429-4 1-699, A395D).
T1 construct: Drp1, GenBank NM_005690; source: E. coli Rosseta (DE3), purified (Ni-NTA, anion exchange, size-exclusion chromatography)
The data set can be described thus: pull-down; GST-fused MiD51^133-463 or mutants on Glutathione Sepharose 4B, equal molar Drp1, 3 h at 4°C; 20 mM HEPES pH 7.5, 150 mM NaCl, 1% Triton X-100, 1 mM MgCl2; SDS-PAGE, Coomassie staining; no nucleotide. As to conditions: both partners purified.

The data set “Drp1 S579D” addresses B9. The description is as above. The following applies: both partners purified.
The data set “Drp1 S600D” deals with B6. The description is as above. The following applies: both partners purified.
The target of another data set is T2, Drp1 G350D/AAAA (UniProt O00429-4 1-699, G350D | 401GPRP404→AAAA).
T2 construct: Drp1, GenBank NM_005690; source: E. coli Rosseta (DE3), purified (Ni-NTA, anion exchange, size-exclusion chromatography)
Described as above. The following applies: both partners purified.

The target in the next data set is T3, Drp1 G350D/A395D (UniProt O00429-4 1-699, G350D | A395D).
T3 construct: Drp1, GenBank NM_005690; source: E. coli Rosseta (DE3), purified (Ni-NTA, anion exchange, size-exclusion chromatography)
The data set is described as above. As to conditions: both partners purified.

A further data set addresses T4, Drp1 A395D/AAAA (UniProt O00429-4 1-699, A395D | 401GPRP404→AAAA).
T4 construct: Drp1, GenBank NM_005690; source: E. coli Rosseta (DE3), purified (Ni-NTA, anion exchange, size-exclusion chromatography)
The data set is described as above. The following applies: both partners purified.

A further data set deals with T5, Drp1 G350D (UniProt O00429-4 1-699, G350D).
T5 construct: Drp1, GenBank NM_005690; source: E. coli Rosseta (DE3), purified (Ni-NTA, anion exchange, size-exclusion chromatography)
The description is as above. The following applies: both partners purified.

The data set “Drp1 K38A” has as its target B7. The data set is described as above. As to conditions: both partners purified.
Data set [3] deals with T6, Drp1 AAAA mutant (401GPRP404→AAAA) (UniProt O00429-4 1-699, 401GPRP404→AAAA).
T6 construct: Drp1, GenBank NM_005690; source: E. coli Rosseta (DE3), purified (Ni-NTA, anion exchange, size-exclusion chromatography)
The data set can be described thus: pull-down; GST-MiD51^133-463 on Glutathione Sepharose; MiD51 and Drp1 mixed first, then no nucleotide (apo) or 1 mM GTP, GMP-PNP, GDP-AlFx or GDP in assay and wash buffer; 20 mM HEPES pH 7.5, 150 mM NaCl, 1% Triton X-100, 1 mM MgCl2; Coomassie staining. The following applies: both partners purified.

For data set [4], the target named is B5. The description is as above. As to conditions: both partners purified.

Numbering of substitutions follows the chain as printed. Names may count otherwise.

Usually stoichiometry N stands for the number of molecules, sites or subunits per partner or assembly.

On to B1, for which, in [1], the “stoichiometry N” value came out at 2.

For the molecule B2, in data set [1], the binding result is on record as “binds”.

Turning to B3, the binding result in data set [1] is “binds”.

For the molecule B4, in data set [1], the binding result was “binds”.

Turning to B5, in data set [2], the binding result is on record as “binds”.

Regarding B6, in data set [2], the binding result was “binds”.

Consider B7, for which, in data set [2], the binding result is listed as “binds”.

Regarding B8, the binding result with Drp1 A395D, in the data set with Drp1 S579D, with Drp1 S600D, in the data set with Drp1 G350D/AAAA, in the data set with Drp1 G350D/A395D and with Drp1 A395D/AAAA was “binds” throughout. Further, the binding result (with Drp1 G350D; with Drp1 K38A; in data set [3]; in [4]) was “binds” each time.

Turning to B9, in data set [2], the binding result is given as “binds”.

These data come from publication PMC6355003, “New interfaces on MiD51 for Drp1 recruitment and regulation” (PLoS ONE, 2019).
